# From patent publication EP4793287A1, “TUMOR MICROENVIRONMENT SPECIFICALLY ACTIVATED CD47 ANTIBODY” (Affinity (Shanghai) Biopharmaceutical Co., Ltd., priority 2023, dated 2025)
# Key:
# [1] = system: Human small cell lung cancer SHP-77 cells; assay: In vivo efficacy, subcutaneous SHP-77 tumor model (Example 11); parameters: species or system CB17-SCID mice; details: for T/C ratio / TGI inhibition rate: after 38 days of treatment
# Procedure: Human small cell lung cancer SHP-77 cells were subcutaneously transplanted into CB17-SCID mice to establish an in vivo model. SHP-77 cells were cultured according to standard culture conditions and were collected during the exponential growth phase for counting. Each mouse was inoculated on the right flank with 2.5×10^6 human small cell lung cancer SHP-77 cells (suspended in 0.1 ml of basal medium). After inoculation, when the tumors grew to 60-103 mm^3 (5 days post-tumor implantation), the mice were randomly grouped based on body weight and tumor volume. The experimental groups were divided as follows:
# (§1) Treatment was started on the day of grouping. Mice were weighed, and tumor volumes were measured twice a week. Tumor volume was calculated using the formula: tumor volume = 1/2 × length × width × width (mm^3). The tumor growth inhibition rate TGI (%) was calculated as [1 - (Tt - T0) / (Ct - C0)] × 100%. The tumor inhibition rate T/C (%) was calculated as (Tt/T0) / (Ct/C0) × 100%. T0 represents the tumor volume of the test antibody group at the time of grouping; Tt represents the tumor volume of the test antibody group at each measurement; C0 represents the average tumor volume of the PBS group at the time of grouping; Ct represents the average tumor volume of the PBS group at each measurement.
# [2] = system: Human Burkitt's lymphoma RAJI cells; assay: In vivo efficacy, subcutaneous RAJI transplanted tumor model; parameters: species or system NOD-SCID mice; details: for T/C ratio / TGI inhibition rate: after 31 days of treatment
# Procedure: Human Burkitt's lymphoma RAJI cells were subcutaneously transplanted into NOD-SCID mice to establish an in vivo model. RAJI cells were cultured according to standard culture conditions and were collected during the exponential growth phase for counting. Each mouse was inoculated on the right flank with 1×10^7 human Burkitt's lymphoma RAJI cells (suspended in 0.1 ml of basal medium). After inoculation, when the tumors grew to 80-114 mm^3 (7 days post-tumor implantation), the mice were randomly grouped based on body weight and tumor volume. The experimental groups were divided as follows:
# as §1
molecule,measurement,setting,value
"CD47 TMEAbody: CD47 TMEAbody conjugated with PEG of approximately 20K molecular weight (i.e., PEG20K) (conjugate) VH: QQQLEESGGGLVKPEGSLTLTCTASGFSFSSGYDMCWVRQAPGRGLEWIACIYTRSSGGTCYASWAKGRFTISKTSSTVDLRMTSLTAADTATYFCAGGRSSYRLNLWGQGALVTVSS VL: DVVMTQTPSPVEAAVGGTVTIKCQASQSISNELSWYQQKPGQPPKLLIYRASTLESGVSSRFKGSGSGTEFTLTISDLECADAATYYCQSTFYGDYGNAFGGGTEVVVK",Tumor Volume,"[1]; 0.3 mg/kg, D0",79.15 mm^3
same,Tumor Volume,"[1]; 0.3 mg/kg, D3",63.51 mm^3
same,Tumor Volume,"[1]; 0.3 mg/kg, D7",44.29 mm^3
same,Tumor Volume,"[1]; 0.3 mg/kg, D10",42.63 mm^3
same,Tumor Volume,"[1]; 0.3 mg/kg, D14",42.49 mm^3
same,Tumor Volume,"[1]; 0.3 mg/kg, D17",44.81 mm^3
same,Tumor Volume,"[1]; 0.3 mg/kg, D21",74.08 mm^3
same,Tumor Volume,"[1]; 0.3 mg/kg, D24",116.17 mm^3
same,Tumor Volume,"[1]; 0.3 mg/kg, D28",142.04 mm^3
same,Tumor Volume,"[1]; 0.3 mg/kg, D31",194.29 mm^3
same,Tumor Volume,"[1]; 0.3 mg/kg, D35",272.39 mm^3
same,Tumor Volume,"[1]; 0.3 mg/kg, D38",373.67 mm^3
same,T/C ratio,[1]; 0.3 mg/kg,29.52%
same,TGI inhibition rate,[1]; 0.3 mg/kg,75.38%
same,Tumor Volume,"[1]; 1 mg/kg, D0",79.75 mm^3
same,Tumor Volume,"[1]; 1 mg/kg, D3",69.70 mm^3
same,Tumor Volume,"[1]; 1 mg/kg, D7",47.94 mm^3
same,Tumor Volume,"[1]; 1 mg/kg, D10",36.61 mm^3
same,Tumor Volume,"[1]; 1 mg/kg, D14",32.95 mm^3
same,Tumor Volume,"[1]; 1 mg/kg, D17",20.93 mm^3
same,Tumor Volume,"[1]; 1 mg/kg, D21",19.98 mm^3
same,Tumor Volume,"[1]; 1 mg/kg, D24",27.75 mm^3
same,Tumor Volume,"[1]; 1 mg/kg, D28",17.69 mm^3
same,Tumor Volume,"[1]; 1 mg/kg, D31",21.42 mm^3
same,Tumor Volume,"[1]; 1 mg/kg, D35",15.37 mm^3
same,Tumor Volume,"[1]; 1 mg/kg, D38",14.44 mm^3
same,T/C ratio,[1]; 1 mg/kg,1.13%
same,TGI inhibition rate,[1]; 1 mg/kg,105.46%
same,Tumor Volume,"[1]; 3 mg/kg, D0",79.00 mm^3
same,Tumor Volume,"[1]; 3 mg/kg, D3",65.86 mm^3
same,Tumor Volume,"[1]; 3 mg/kg, D7",44.80 mm^3
same,Tumor Volume,"[1]; 3 mg/kg, D10",33.94 mm^3
same,Tumor Volume,"[1]; 3 mg/kg, D14",27.48 mm^3
same,Tumor Volume,"[1]; 3 mg/kg, D17",24.62 mm^3
same,Tumor Volume,"[1]; 3 mg/kg, D21",9.14 mm^3
same,Tumor Volume,"[1]; 3 mg/kg, D24",13.52 mm^3
same,Tumor Volume,"[1]; 3 mg/kg, D28",10.79 mm^3
same,Tumor Volume,"[1]; 3 mg/kg, D31",17.13 mm^3
same,Tumor Volume,"[1]; 3 mg/kg, D35",14.44 mm^3
same,Tumor Volume,"[1]; 3 mg/kg, D38",12.85 mm^3
same,T/C ratio,[1]; 3 mg/kg,1.02%
same,TGI inhibition rate,[1]; 3 mg/kg,105.53%
same,tumor growth inhibition,[1]; 0.3-3 mg/kg,significant tumor growth inhibition
same,changes in body weight,[1]; during the treatment period,No significant changes in body weight
same,Tumor Volume,"[2]; 0.3 mg/kg, D0",94.56 mm^3
same,Tumor Volume,"[2]; 0.3 mg/kg, D3",123.83 mm^3
same,Tumor Volume,"[2]; 0.3 mg/kg, D7",147.44 mm^3
same,Tumor Volume,"[2]; 0.3 mg/kg, D10",232.04 mm^3
same,Tumor Volume,"[2]; 0.3 mg/kg, D14",358.82 mm^3
same,Tumor Volume,"[2]; 0.3 mg/kg, D17",511.34 mm^3
same,Tumor Volume,"[2]; 0.3 mg/kg, D21",849.95 mm^3
same,Tumor Volume,"[2]; 0.3 mg/kg, D24",1156.48 mm^3
same,Tumor Volume,"[2]; 0.3 mg/kg, D28",1887.63 mm^3
same,Tumor Volume,"[2]; 0.3 mg/kg, D31",2532.90 mm^3
same,T/C ratio,[2]; 0.3 mg/kg,93.73%
same,TGI inhibition rate,[2]; 0.3 mg/kg,6.45%
same,Tumor Volume,"[2]; 1 mg/kg, D0",94.25 mm^3
same,Tumor Volume,"[2]; 1 mg/kg, D3",100.17 mm^3
same,Tumor Volume,"[2]; 1 mg/kg, D7",116.36 mm^3
same,Tumor Volume,"[2]; 1 mg/kg, D10",162.08 mm^3
same,Tumor Volume,"[2]; 1 mg/kg, D14",214.12 mm^3
same,Tumor Volume,"[2]; 1 mg/kg, D17",307.27 mm^3
same,Tumor Volume,"[2]; 1 mg/kg, D21",384.91 mm^3
same,Tumor Volume,"[2]; 1 mg/kg, D24",485.51 mm^3
same,Tumor Volume,"[2]; 1 mg/kg, D28",679.76 mm^3
same,Tumor Volume,"[2]; 1 mg/kg, D31",890.40 mm^3
same,T/C ratio,[2]; 1 mg/kg,33.06%
same,TGI inhibition rate,[2]; 1 mg/kg,69.46%
same,Tumor Volume,"[2]; 3 mg/kg, D0",93.15 mm^3
same,Tumor Volume,"[2]; 3 mg/kg, D3",91.90 mm^3
same,Tumor Volume,"[2]; 3 mg/kg, D7",81.07 mm^3
same,Tumor Volume,"[2]; 3 mg/kg, D10",87.74 mm^3
same,Tumor Volume,"[2]; 3 mg/kg, D14",92.16 mm^3
same,Tumor Volume,"[2]; 3 mg/kg, D17",91.91 mm^3
same,Tumor Volume,"[2]; 3 mg/kg, D21",129.68 mm^3
same,Tumor Volume,"[2]; 3 mg/kg, D24",117.69 mm^3
same,Tumor Volume,"[2]; 3 mg/kg, D28",125.24 mm^3
same,Tumor Volume,"[2]; 3 mg/kg, D31",120.05 mm^3
same,T/C ratio,[2]; 3 mg/kg,4.51%
same,TGI inhibition rate,[2]; 3 mg/kg,98.97%
same,tumor growth inhibition,[2]; 0.3-3 mg/kg,significant tumor growth inhibition
same,changes in body weight,[2]; during the treatment period,No significant changes in body weight
